In PMC5745072:

Assay: Hampton Screens I and II, vapor diffusion
Settings: glycan lost; control: glycosylated GOx from P. pastoris

B1: Glucose oxidase (GOx), mutants A2 and F9: Endo H (protein)
parent chain: MQTLLVSSLVVSLAAALPHYIRSNGIEASLLTDPKDVSGRTVDYIIAGGGLTGLTTAARLTENPNISVLVIESGSYESDRGPIIEDLNAYGDIFGSSVDHAYETVELATNNQTALIRSGNGLGGSTLVNGGTWTRPHKAQVDSWETVFGNEGWNWDNVAAYSLQAERARAPNAKQIAAGHYFNASCHGVNGTVHAGPRDTGDDYSPIVKALMSAVEDRGVPTKKDFGCGDPHGVSMFPNTLHEDQVRSDAAREWLLPNYQRPNLQVLTGQYVGKVLLSQNGTTPRAVGVEFGTHKGNTHNVYAKHEVLLAAGSAVSPTILEYSGIGMKSILEPLGIDTVVDLPVGLNLQDQTTATVRSRITSAGAGQGQAAWFATFNETFGDYSEKAHELLNTKLEQWAEEAVARGGFHNTTALLIQYENYRDWIVNHNVAYSELFLDTAGVASFDVWDLLPFTRGYVHILDKDPYLHHFAYDPQYFLNELDLLGQAAATQLARNISNSGAMQTYFAGETIPGDNLAYDADLSAWTEYIPYHFRPNYHGVGTCSMMPKEMGGVVDNAARVYGVQGLRVIDGSIPPTQMSSHVMTVFYAMALKISDAILEDYASMQ
other: crystallisability: increases
